Measurements as given in article PMC10268231 (Nature, 2021).

How the values were obtained:
[1] = target: T1, CTC1;STN1;TEN1;POLA1 (p180);POLA2 (p70);PRIM1 (p49);PRIM2 (p58) (human;human;human;human;human;human;huma …, UniProt Q2NKJ3;Q9H668;Q86WV5;P09884;Q14181;P49642;P49643 …, ||||||); assay: cryo-EM
[2] = target: T1, CTC1;STN1;TEN1;POLA1 (p180);POLA2 …; assay: cryo-EM; remark: listed apart in the source
[3] = target: T1, CTC1;STN1;TEN1;POLA1 (p180);POLA2 …; assay: negative-stain EM

TTAGGGTTAGGGTTAGGG (ssDNA) [3xTEL]
binding result [1]: binds

TTAGGGTTAGGGTTAGGGTTAGGGTTAGGGTTAGGG (ssDNA) [6xTEL]
binding result [2]: binds

TTAGGGTTAGGGTTA (ssDNA) [(TTAGGG)2TTA 15-nt template]
binding result [3]: binds
